Positions count from the first letter of the chain named.
B1: antibody 11E1 (antibody, V domains shown)
VH: EIQLQQSGPELVKPGASVKVSCKASGYAFTSYNMYWVKQSHGKSLEWIGYIDPYNGGTSYNQKFKGKATLTVDKSSSTAYMHLNSLTSEDSAVYYCARGYGNYKAWFAYWGQGTLVTVSA
VL: DAVMTQTPKFLLVSAGDRVTITCKASQSVTNDVAWYQQKPGQSPKLLIYYASNRYTGVPDRFTGSGYGTDFTFTISTVQAEDLAVYFCQQDYSSLTFGAGTKLELK
B2: antibody 6E1 (antibody, V domains shown)
VH: B1 VH with I2F, S44R, T58S, S85N, G101N
VL: B1 VL with D1S, A2I, V78M
B3: antibody 8C7 (antibody, V domains shown)
VH: B1 VH with I2V, T30A, Y35N, E46D, T58S, Q62L, K63T, S77T
VL: SIVMTPTPKFLLVSAGDRVTITCKASQSVSNDVAWYQQKPGQSPKLLIYYASTRYTGVPDRFTGSGYGTDFTFTISTVQAEDLAVYFCQQDYSSLTFGAGTKLELKR
B4: antibody 3C12 (antibody, V domains shown)
VH: B1 VH with E1Q, T30A, Y35N, E46D, T58S, Q62L, K63T, S77T
VL: B3 VL with S1D, I2V, P6Q

What was measured:
[1] = target: T1, human CD73 expressed at the cell surface (human, UniProt P21589 27-549); assay: cell-based or functional assay
T1 sequence: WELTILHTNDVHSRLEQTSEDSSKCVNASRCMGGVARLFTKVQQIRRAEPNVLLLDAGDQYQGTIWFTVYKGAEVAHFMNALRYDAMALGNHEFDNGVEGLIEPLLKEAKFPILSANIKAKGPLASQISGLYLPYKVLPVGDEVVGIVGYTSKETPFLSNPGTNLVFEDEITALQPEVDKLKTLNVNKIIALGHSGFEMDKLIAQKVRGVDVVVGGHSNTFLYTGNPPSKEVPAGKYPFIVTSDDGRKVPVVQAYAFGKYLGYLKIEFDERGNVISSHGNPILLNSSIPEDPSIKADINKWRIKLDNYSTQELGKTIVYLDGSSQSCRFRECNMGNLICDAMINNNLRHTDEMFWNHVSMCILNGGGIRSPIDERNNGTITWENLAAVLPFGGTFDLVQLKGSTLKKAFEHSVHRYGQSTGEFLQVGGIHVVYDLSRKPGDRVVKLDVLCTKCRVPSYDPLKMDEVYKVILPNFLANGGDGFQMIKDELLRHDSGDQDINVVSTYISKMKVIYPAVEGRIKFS

[2] = target: recombinant human CD73-His extracellular domain recombinant protein (soluble dimer) (human) (UniProt P21589); assay: ELISA, recombinant human CD73 coated at 5 µg/ml, antibody titrated
[3] = target: T1, human CD73 expressed at the cell surface; assay: cell-based or functional assay; remark: listed apart in the source
[4] = target: T2, recombinant human CD73-His extracellular domain recombinant protein (soluble dimer) (human, UniProt P21589 27-547, limits assumed); assay: cell-based or functional assay
T2 sequence: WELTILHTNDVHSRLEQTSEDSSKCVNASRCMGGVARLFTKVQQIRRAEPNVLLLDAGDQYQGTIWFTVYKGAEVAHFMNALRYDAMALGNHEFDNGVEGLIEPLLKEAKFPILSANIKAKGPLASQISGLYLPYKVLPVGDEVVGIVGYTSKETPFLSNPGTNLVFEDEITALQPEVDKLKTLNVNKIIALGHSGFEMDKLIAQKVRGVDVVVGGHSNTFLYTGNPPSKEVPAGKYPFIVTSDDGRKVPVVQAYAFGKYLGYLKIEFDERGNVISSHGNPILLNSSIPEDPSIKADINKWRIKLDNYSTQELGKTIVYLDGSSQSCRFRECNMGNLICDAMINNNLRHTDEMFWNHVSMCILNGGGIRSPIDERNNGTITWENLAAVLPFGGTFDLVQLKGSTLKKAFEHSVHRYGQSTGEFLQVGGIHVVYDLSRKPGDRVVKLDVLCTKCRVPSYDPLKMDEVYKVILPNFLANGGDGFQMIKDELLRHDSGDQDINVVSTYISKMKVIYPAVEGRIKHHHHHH

[5] = target: T1, human CD73 expressed at the cell surface; assay: cell-based or functional assay; remark: listed apart in the source
[6] = target: T1, human CD73 expressed at the cell surface; assay: cell-based or functional assay; remark: listed apart in the source

| Molecule | down-modulation of CD73 expression on MDA-MB-231 cells (10 µg/ml antibody, time course) [1] | EC50 [2] | decrease of enzymatic activity of cellular CD73 (MDA-MB-231) [3] | EC50 for CD73 blockade (enzymatic activity of soluble recombinant human CD73-his, Cell Titer Glo luciferase read-out) [4] | EC50 for neutralization of enzymatic activity of cellular CD73 (MDA-MB-231 cells, free phosphate from AMP hydrolysis, Malachite Green) [5] | EC50 for neutralization of cellular CD73 enzymatic activity, mean over MDA-MB-231, H292 and A375 cells (N=8) [6] | EC70 for neutralization of cellular CD73 enzymatic activity, mean over MDA-MB-231, H292 and A375 cells (N=8) [6] | EC100 for neutralization of cellular CD73 enzymatic activity, mean over MDA-MB-231, H292 and A375 cells (N=8) [6] | EC50 for neutralization of cellular CD73 enzymatic activity, mean over MDA-MB-231, H292 and A375 cells (N=2) [6] |
| --- | --- | --- | --- | --- | --- | --- | --- | --- | --- |
| antibody 7G2 (Life Technologies Corp.) | > 50% | 0.037 mg/L |  |  |  |  |  |  |  |
| B1 |  |  | > 75% | 0.41 mg/L | 0.195 mg/L | 0.1 mg/L | 0.15 mg/L | 0.52 µg/mL |  |
| B2 |  |  | > 75% | 0.33 mg/L | 0.209 mg/L | 0.13 mg/L | 0.19 mg/L | 0.68 µg/mL |  |
| B3 |  |  | > 75% | 1.29 mg/L | 0.319 mg/L |  |  |  | 0.21 mg/L |
| B4 |  |  | > 75% | 0.41 mg/L | 0.21 mg/L | 0.14 mg/L | 0.18 mg/L | 0.3 µg/mL |  |
